Measured values from article PMC3173227 (The Journal of Biological Chemistry, 2011).
Blank lines part the entries; values can stand above or below the molecule they belong to.

B1: human FANCL RING domain (residues 289-375) (domain or fragment, UniProt Q9NW38 289-375, looked up)
chain: EIDFPARAILEKSDFTMDCGICYAYQLDGTIPDQVCDNSQCGQPFHQICLYEWLRGLLTSRQSFNIIFGECPYCSKPITLKMSGRKH
B2: human Ube2T (enzyme, UniProt Q9NPD8 1-197, looked up)
chain: MQRASRLKRELHMLATEPPPGITCWQDKDQMDDLRAQILGGANTPYEKGVFKLEVIIPERYPFEPPQIRFLTPIYHPNIDSAGRICLDVLKLPPKGAWRPSLNIATVLTSIQLLMSEPNPDDPLMADISSEFKYNKPAFLKNARQWTEKHARQKQKADEEEMLDNLPEAGDSRVHNSTQKRKASQLVGIEKKFHPDV

Assays:
[1] = target: human FANCL RING domain (residues 289-375) (human) (UniProt Q9NW38); assay: ITC
human Ube2T = target: B2; assay: ITC
[2] = target: B1; assay: SEC

Kd [1]: 5 µM
Molecule: Ube2T-F63A (from UniProt Q9NPD8 1-197) (enzyme)

Molecule: B1
Kd (human Ube2T): 0.454 µM

Molecule: B2
stoichiometry N [2]: 1
